Test [1] addresses T1, TM4SF19 in which 3HA was tagged at the N-terminus (human TM4SF19, NP_612470.2 isoform 1) (human, UniProt Q96DZ7 1-209).
T1 construct: also called 3HA-TM4SF19; TM4SF19 tagged with 3HA in N-terminus; not shown: 3HA tag at the N-terminus
T1 sequence: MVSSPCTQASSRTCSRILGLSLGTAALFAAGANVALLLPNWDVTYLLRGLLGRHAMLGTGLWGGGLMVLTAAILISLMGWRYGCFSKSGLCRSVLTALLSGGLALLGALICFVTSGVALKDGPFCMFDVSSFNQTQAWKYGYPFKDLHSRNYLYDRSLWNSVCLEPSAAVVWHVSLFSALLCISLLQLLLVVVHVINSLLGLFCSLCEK
The test is described as follows: immunoprecipitation, 293T cells. From the text:
In the same manner as described above, by the transient overexpression of TM4SF19 in which 3HA was tagged at the N-terminus, a wild-type in which 3Flag was tagged at the N-terminus, and a TM4SF19 deletion mutant in 293T cells, binding was confirmed through immunoprecipitation.

For test [2], the target named is T1, TM4SF19 in which 3HA was tagged at the …. The test is described as follows: immunoprecipitation, 3HA- and 3Flag-tagged TM4SF19 in 293T cells. An excerpt:
To confirm whether TM4SF19 is involved in cell-to-cell interactions, HA- or flag-tagged TM4SF19 was manufactured. TM4SF19 in which 3HA was tagged at the N-terminus, a wild-type in which 3Flag was tagged at the N-terminus, and a TM4SF19-deletion mutant were subjected to transient overexpression in 293T cells to confirm binding through immunoprecipitation.

B1: hTm4sf19 94-196 (only aa 94-196 of hTM4SF19 remains, other sequences deleted) (other)
chain: VLTALLSGGLALLGALICFVTSGVALKDGPFCMFDVSSFNQTQAWKYGYPFKDLHSRNYLYDRSLWNSVCLEPSAAVVWHVSLFSALLCISLLQLLLVVVHVI
notes: Expresses transmembrane 3, extracellular region 2 (EC2) and transmembrane 4 of TM4SF19; overexpressed in 293T cells; not shown: tag not expressly stated for this mutant (the other mutants carry 3Flag)
On to B1, for which, in test [1], the binding result is recorded as “binds”.

B2: hTM4SF19 94-196Δ (3Flag-tagged deletion mutant lacking transmembrane 3, extracellular region 2 and transmembrane 4) (other)
chain: MVSSPCTQASSRTCSRILGLSLGTAALFAAGANVALLLPNWDVTYLLRGLLGRHAMLGTGLWGGGLMVLTAAILISLMGWRYGCFSKSGLCRSNSLLGLFCSLCEK
notes: the kept ranges are worked out from the printed deletion limits; not shown: 3Flag tag
For the molecule B2, the binding result in test [1] is on record as “no binding”.

B3: wild-type TM4SF19 in which 3Flag was tagged at the N-terminus (human TM4SF19) (other)
chain: T1 sequence
notes: Overexpressed in 293T cells (for the integrins: 293T or Raw 264.7 cells) and tested by immunoprecipitation; also called 3Flag-hTM4SF19; TM4SF19 wt; not shown: 3Flag tag at the N-terminus
On to B3, for which the binding result in test [2] is recorded as “binds”.

These data come from patent publication US20240132571A1 (MEDPACTO, published 2024).
